In US20200079833A1 (AstraZeneca / MedImmune, published 2020):
Non-standard residues stand in square brackets, D forms with d. Groups on a side chain read outwards from the residue. Primed or numbered codes have the meaning given here. No end group written: not given here. *: point of attachment. Stearoyl = CCCCCCCCCCCCCCCCCC(=O)*; αMeF = C[C@](N)(Cc1ccccc1)C(=O)O; αMeK = C[C@](N)(CCCCN)C(=O)O; αMeS = C[C@](N)(CO)C(=O)O; PEG2′ = not defined here; Aib = CC(C)(N)C(=O)O; Ahx = NCCCCCC(=O)O

What was measured:
Assay in all cases: cell-based or functional assay
GLP-1 receptor (GLP-1R) = GLP-1 receptor (GLP-1R) (human, UniProt P43220 24-463)
glucagon receptor (GCGR) = glucagon receptor (GCGR) (human, UniProt P47871 26-477)
glucagon receptor (GCGR), sequence (P47871 26-477): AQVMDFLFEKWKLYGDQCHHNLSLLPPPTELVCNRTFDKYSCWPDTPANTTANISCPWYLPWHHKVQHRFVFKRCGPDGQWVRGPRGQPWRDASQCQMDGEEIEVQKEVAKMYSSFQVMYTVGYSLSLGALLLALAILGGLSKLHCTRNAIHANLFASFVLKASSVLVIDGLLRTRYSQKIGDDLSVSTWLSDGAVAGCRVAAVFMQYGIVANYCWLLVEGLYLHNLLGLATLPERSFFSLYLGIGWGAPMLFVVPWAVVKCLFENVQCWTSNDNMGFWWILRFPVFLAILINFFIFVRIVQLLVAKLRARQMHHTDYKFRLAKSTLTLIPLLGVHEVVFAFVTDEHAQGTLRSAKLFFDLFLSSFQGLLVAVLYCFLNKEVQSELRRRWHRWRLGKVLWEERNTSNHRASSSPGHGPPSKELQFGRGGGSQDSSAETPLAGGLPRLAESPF

[1] = molecular target: T1, glucose-dependent insulinotropic peptide (gastric inhibitory polypeptide) receptor (GIPR) (human, UniProt P48546 22-466)
T1 sequence (looked up): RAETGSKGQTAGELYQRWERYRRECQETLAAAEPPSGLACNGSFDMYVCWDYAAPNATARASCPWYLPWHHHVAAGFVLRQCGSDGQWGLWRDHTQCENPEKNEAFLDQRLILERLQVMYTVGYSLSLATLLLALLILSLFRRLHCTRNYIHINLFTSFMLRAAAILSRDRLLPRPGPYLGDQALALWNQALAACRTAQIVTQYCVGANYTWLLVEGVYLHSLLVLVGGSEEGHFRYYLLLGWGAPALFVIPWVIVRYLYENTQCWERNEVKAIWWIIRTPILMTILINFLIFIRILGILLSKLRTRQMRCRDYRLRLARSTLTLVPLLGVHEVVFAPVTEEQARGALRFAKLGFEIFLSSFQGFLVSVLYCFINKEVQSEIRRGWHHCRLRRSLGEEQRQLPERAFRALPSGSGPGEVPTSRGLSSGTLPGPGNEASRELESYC

Binder | Primary assay EC50 (cAMP), GLP-1R n1 (GLP-1 receptor (GLP-1R)) [nM] | Primary assay EC50 (cAMP), GLP-1R n2 (GLP-1 receptor (GLP-1R)) [nM] | Primary assay EC50 (cAMP), Mean pM GLP-1R (GLP-1 receptor (GLP-1R)) [pM] | Primary assay EC50 (cAMP), Gluc-R, first run (glucagon receptor (GCGR)) [nM] | Primary assay EC50 (cAMP), Gluc-R, second run (glucagon receptor (GCGR)) [nM] | Primary assay EC50 (cAMP), GIP-R, first run [1] [nM] | Primary assay EC50 (cAMP), GIP-R, second run [1] [nM]
H[Aib]EGS[αMeF]TSDV[αMeS]S[αMeF]LEGEAA[αMeK]E[αMeF]IA[αMeF]VVK([PEG2′-PEG2′-Stearoyl])GG-NH2 [SEQ ID NO 189] | 0.03 | 0.012 | 20.8 | 27 | 27 | 27 | 27
H[Aib]EGS[αMeF]TSDV[αMeS]S[αMeF]LEGEAA[αMeK]E[αMeF]IA[αMeF]VVK([PEG2′-PEG2′-PEG2′-Stearoyl])GG-NH2 [SEQ ID NO 190] | 0.0097 | 0.0047 | 7.2 | 26 | 26 | 26 | 26
H[Aib]EGS[αMeF]TSDV[αMeS]S[αMeF]LEGEAA[αMeK]E[αMeF]IA[αMeF]VVK([Ahx-Ahx-Ahx-Stearoyl])GG-NH2 (N-terminus assumed; SMILES CCCCCCCCCCCCCCCCCC(=O)NCCCCCC(=O)NCCCCCC(=O)NCCCCCC(=O)NCCCC[C@H](NC(=O)[C@@H](NC(=O)[C@@H](NC(=O)[C@](C)(Cc1ccccc1)NC(=O)[C@H](C)NC(=O)[C@@H](NC(=O)[C@](C)(Cc1ccccc1)NC(=O)[C@H](CCC(=O)O)NC(=O)[C@](C)(CCCCN)NC(=O)[C@H](C)NC(=O)[C@H](C)NC(=O)[C@H](CCC(=O)O)NC(=O)CNC(=O)[C@H](CCC(=O)O)NC(=O)[C@H](CC(C)C)NC(=O)[C@](C)(Cc1ccccc1)NC(=O)[C@H](CO)NC(=O)[C@](C)(CO)NC(=O)[C@@H](NC(=O)[C@H](CC(=O)O)NC(=O)[C@H](CO)NC(=O)[C@@H](NC(=O)[C@](C)(Cc1ccccc1)NC(=O)[C@H](CO)NC(=O)CNC(=O)[C@H](CCC(=O)O)NC(=O)C(C)(C)NC(=O)[C@@H](N)Cc1c[nH]cn1)[C@@H](C)O)C(C)C)[C@@H](C)CC)C(C)C)C(C)C)C(=O)NCC(=O)NCC(N)=O) [SEQ ID NO 187] | 0.064 | 0.031 | 47.4 | 26 | 26 | 26 | 26
H[Aib]EGS[αMeF]TSDV[αMeS]S[αMeF]LEGEAA[αMeK]E[αMeF]IA[αMeF]VVK([PEG2′-Stearoyl])GG-NH2 [SEQ ID NO 188] | 0.17 | 0.077 | 125 | 28 | 28 | 28 | 28
